Assay results taken from PMC11746146 (Nature Structural & Molecular Biology, 2024).

Tests used:
[1] = target: human guanylate-binding protein 1 (GBP1), non-farnesylated (human) (UniProt P32455); assay: SEC-MALS; protein at 15 µM with the GTP transition-state mimic GDP·AlF3, incubated 5–10 min at room temperature; Superdex200 Increase 10/300 GL; 50 mM HEPES pH 7.4, 150 mM NaCl, 0.5 mM TCEP or DTT
[2] = target: T1, human guanylate-binding protein 1 (GBP1), non-farnesylated (human, UniProt P32455); assay: SEC-MALS; nanobody mixed with GBP1 or GBP1F, in the presence and absence of GDP·AlF3; SDS–PAGE (and western blot for GFP–Nb74) of peak fractions; conditions: both partners purified
T1 construct: human GBP1, UniProt P32455, codon-optimized synthetic DNA in pETM14; called full-length in the results; Dimer studied with GDP·AlF3 (200 µM GDP, 10 mM NaF, 300 µM AlCl3, 5 mM MgCl2); also called hGBP1; WT GBP1; source: E. coli BL21(DE3), purified (TALON, 3C cleavage, SEC); not shown: His6, N-terminal, cleaved

[3] = target: T2, farnesylated human GBP1 (GBP1F) (human, UniProt P32455, C-terminal C15-farnesyl moiety (CaaX isoprenylation motif)); assay: as above; conditions: both partners purified
T2 construct: human GBP1, UniProt P32455, from pETM14-GBP1, co-translationally farnesylated; also called GBP1F–GDP·AlF3; WT GBP1F; source: E. coli BL21(DE3), co-expressed with FNTA-FNTB, purified (TALON, 3C cleavage, HIC, SEC); not shown: His6, N-terminal, cleaved

[4] = target: the molecule itself; assay: mass photometry; Refeyn OneMP; samples with GDP·AlF3 diluted to 15 nM in 50 mM HEPES pH 7.5, 150 mM NaCl
[5] = target: the molecule itself; assay: SEC-MALS; protein at 15 µM with the GTP transition-state mimic GDP·AlF3, incubated 5–10 min at room temperature; Superdex200 Increase 10/300 GL; 50 mM HEPES pH 7.4, 150 mM NaCl, 0.5 mM TCEP or DTT

Question: With “human guanylate-binding protein 1 (GBP1), non-farnesylated (from UniProt P32455 1-592) (natural protein)” as the molecule, how does the stoichiometry N [1] read?
Answer: 2

B1: nanobody 74 (Nb74) (VHH)
VHH: QVQLVESGGGLVQAGDSLRLSCAASGRALGNYYVGWFSQAPGKEREFVAAISWSGSSTFYADSVKGRFTISRDNAKNTVDLQMNSLKPEDTAVYYCAANPTAKLGSSWYQTPREFGYWGQGTQVTVSS
notes: llama nanobody selected by phage display; the entry PDB 8CQB / EMD-16794 is headed GBP1–GDP·AlF3–Nb74, but the deposited model is called the GBP1 dimer (956 protein residues), so Nb74 may not be in it; Raised in llamas immunized with monomeric GBP1, GBP1F or GDP·AlF3-stabilized dimeric GBP1; source: E. coli WK6 (su−), periplasmic extract, purified (Ni-NTA)
Question: For B1, which “stoichiometry N” value [2] is on record?
Answer: 1 molar ratio

Question: And the “stoichiometry N” value [3]?
Answer: 1

B2: GBP1 D308S, non-farnesylated (natural protein, human, UniProt P32455 1-592, looked up)
chain: MASEIHMTGPMCLIENTNGRLMANPEALKILSAITQPMVVVAIVGLYRTGKSYLMNKLAGKKKGFSLGSTVQSHTKGIWMWCVPHPKKPGHILVLLDTEGLGDVEKGDNQNDSWIFALAVLLSSTFVYNSIGTINQQAMDQLYYVTELTHRIRSKSSPDENENEVEDSADFVSFFPDFVWTLRDFSLDLEADGQPLTPDEYLTYSLKLKKGTSQKDETFNLPRLCIRKFFPKKKCFVFDRPVHRRKLAQLEKLQDEELDPEFVQQVADFCSYIFSNSKTKTLSGGIQVNGPRLESLVLTYVNAISSGSLPCMENAVLALAQIENSAAVQKAIAHYEQQMGQKVQLPTETLQELLDLHRDSEREAIEVFIRSSFKDVDHLFQKELAAQLEKKRDDFCKQNQEASSDRCSALLQVIFSPLEEEVKAGIYSKPGGYRLFVQKLQDLKKKYYEEPRKGIQAEEILQTYLKSKESMTDAILQTDQTLTEKEKEIEVERVKAESAQASAKMLQEMQRKNEQMMEQKERSYQEHLKQLTEKMENDRVQLLKEQERTLALKLQEQEQLLKEGFQKESRIMKNEIQDLQTKMRRRKACTIS
notes: human GBP1, UniProt P32455, variant made from pETM14-GBP1 by QuikChange mutagenesis; source: E. coli BL21(DE3), purified (TALON, 3C cleavage, SEC); not shown: His6, N-terminal, cleaved
Question: Does B2 bind [4]?
Answer: binds

B3: GBP1F R584–586A (natural protein, human, UniProt P32455 1-592, looked up)
chain: MASEIHMTGPMCLIENTNGRLMANPEALKILSAITQPMVVVAIVGLYRTGKSYLMNKLAGKKKGFSLGSTVQSHTKGIWMWCVPHPKKPGHILVLLDTEGLGDVEKGDNQNDSWIFALAVLLSSTFVYNSIGTINQQAMDQLYYVTELTHRIRSKSSPDENENEVEDSADFVSFFPDFVWTLRDFSLDLEADGQPLTPDEYLTYSLKLKKGTSQKDETFNLPRLCIRKFFPKKKCFVFDRPVHRRKLAQLEKLQDEELDPEFVQQVADFCSYIFSNSKTKTLSGGIQVNGPRLESLVLTYVNAISSGDLPCMENAVLALAQIENSAAVQKAIAHYEQQMGQKVQLPTETLQELLDLHRDSEREAIEVFIRSSFKDVDHLFQKELAAQLEKKRDDFCKQNQEASSDRCSALLQVIFSPLEEEVKAGIYSKPGGYRLFVQKLQDLKKKYYEEPRKGIQAEEILQTYLKSKESMTDAILQTDQTLTEKEKEIEVERVKAESAQASAKMLQEMQRKNEQMMEQKERSYQEHLKQLTEKMENDRVQLLKEQERTLALKLQEQEQLLKEGFQKESRIMKNEIQDLQTKMAAAKACTIS
modifications: C-terminal C15-farnesyl moiety (CaaX isoprenylation motif)
notes: human GBP1, UniProt P32455, polybasic motif R584–R586 changed to alanines, farnesylated; also called GBP1F R584-R586; source: E. coli BL21(DE3), purified; not shown: His6, N-terminal, cleaved
Question: Does B3 bind [5]?
Answer: binds

B4: GBP1 K466D, non-farnesylated (natural protein, human, UniProt P32455 1-592, looked up)
chain: MASEIHMTGPMCLIENTNGRLMANPEALKILSAITQPMVVVAIVGLYRTGKSYLMNKLAGKKKGFSLGSTVQSHTKGIWMWCVPHPKKPGHILVLLDTEGLGDVEKGDNQNDSWIFALAVLLSSTFVYNSIGTINQQAMDQLYYVTELTHRIRSKSSPDENENEVEDSADFVSFFPDFVWTLRDFSLDLEADGQPLTPDEYLTYSLKLKKGTSQKDETFNLPRLCIRKFFPKKKCFVFDRPVHRRKLAQLEKLQDEELDPEFVQQVADFCSYIFSNSKTKTLSGGIQVNGPRLESLVLTYVNAISSGDLPCMENAVLALAQIENSAAVQKAIAHYEQQMGQKVQLPTETLQELLDLHRDSEREAIEVFIRSSFKDVDHLFQKELAAQLEKKRDDFCKQNQEASSDRCSALLQVIFSPLEEEVKAGIYSKPGGYRLFVQKLQDLKKKYYEEPRKGIQAEEILQTYLDSKESMTDAILQTDQTLTEKEKEIEVERVKAESAQASAKMLQEMQRKNEQMMEQKERSYQEHLKQLTEKMENDRVQLLKEQERTLALKLQEQEQLLKEGFQKESRIMKNEIQDLQTKMRRRKACTIS
notes: as for B2
Question: Does B4 bind [4]?
Answer: binds

B5: GBP1 Y143A, non-farnesylated (natural protein, human, UniProt P32455 1-592, looked up)
chain: MASEIHMTGPMCLIENTNGRLMANPEALKILSAITQPMVVVAIVGLYRTGKSYLMNKLAGKKKGFSLGSTVQSHTKGIWMWCVPHPKKPGHILVLLDTEGLGDVEKGDNQNDSWIFALAVLLSSTFVYNSIGTINQQAMDQLAYVTELTHRIRSKSSPDENENEVEDSADFVSFFPDFVWTLRDFSLDLEADGQPLTPDEYLTYSLKLKKGTSQKDETFNLPRLCIRKFFPKKKCFVFDRPVHRRKLAQLEKLQDEELDPEFVQQVADFCSYIFSNSKTKTLSGGIQVNGPRLESLVLTYVNAISSGDLPCMENAVLALAQIENSAAVQKAIAHYEQQMGQKVQLPTETLQELLDLHRDSEREAIEVFIRSSFKDVDHLFQKELAAQLEKKRDDFCKQNQEASSDRCSALLQVIFSPLEEEVKAGIYSKPGGYRLFVQKLQDLKKKYYEEPRKGIQAEEILQTYLKSKESMTDAILQTDQTLTEKEKEIEVERVKAESAQASAKMLQEMQRKNEQMMEQKERSYQEHLKQLTEKMENDRVQLLKEQERTLALKLQEQEQLLKEGFQKESRIMKNEIQDLQTKMRRRKACTIS
notes: as for B2
Question: Does B5 bind [4]?
Answer: binds
